The record followed here is US20090029467A1.

Where two headings read alike, the source gives them in different places.

Holding throughout (assay): cell-based or functional assay
Assay [1] deals with cation-independent mannose-6-phosphate/IGF-II receptor on GM4668 human skin fibroblasts (human) (UniProt P11717).
Assay [2] has the same target. The source holds these as a separate data set.
Assay [3] has the same target. The source holds these as a separate data set.
For assay [4] the target is unchanged. The source holds these as a separate data set.

Chain of UniProt P11717 (P11717 41-2491): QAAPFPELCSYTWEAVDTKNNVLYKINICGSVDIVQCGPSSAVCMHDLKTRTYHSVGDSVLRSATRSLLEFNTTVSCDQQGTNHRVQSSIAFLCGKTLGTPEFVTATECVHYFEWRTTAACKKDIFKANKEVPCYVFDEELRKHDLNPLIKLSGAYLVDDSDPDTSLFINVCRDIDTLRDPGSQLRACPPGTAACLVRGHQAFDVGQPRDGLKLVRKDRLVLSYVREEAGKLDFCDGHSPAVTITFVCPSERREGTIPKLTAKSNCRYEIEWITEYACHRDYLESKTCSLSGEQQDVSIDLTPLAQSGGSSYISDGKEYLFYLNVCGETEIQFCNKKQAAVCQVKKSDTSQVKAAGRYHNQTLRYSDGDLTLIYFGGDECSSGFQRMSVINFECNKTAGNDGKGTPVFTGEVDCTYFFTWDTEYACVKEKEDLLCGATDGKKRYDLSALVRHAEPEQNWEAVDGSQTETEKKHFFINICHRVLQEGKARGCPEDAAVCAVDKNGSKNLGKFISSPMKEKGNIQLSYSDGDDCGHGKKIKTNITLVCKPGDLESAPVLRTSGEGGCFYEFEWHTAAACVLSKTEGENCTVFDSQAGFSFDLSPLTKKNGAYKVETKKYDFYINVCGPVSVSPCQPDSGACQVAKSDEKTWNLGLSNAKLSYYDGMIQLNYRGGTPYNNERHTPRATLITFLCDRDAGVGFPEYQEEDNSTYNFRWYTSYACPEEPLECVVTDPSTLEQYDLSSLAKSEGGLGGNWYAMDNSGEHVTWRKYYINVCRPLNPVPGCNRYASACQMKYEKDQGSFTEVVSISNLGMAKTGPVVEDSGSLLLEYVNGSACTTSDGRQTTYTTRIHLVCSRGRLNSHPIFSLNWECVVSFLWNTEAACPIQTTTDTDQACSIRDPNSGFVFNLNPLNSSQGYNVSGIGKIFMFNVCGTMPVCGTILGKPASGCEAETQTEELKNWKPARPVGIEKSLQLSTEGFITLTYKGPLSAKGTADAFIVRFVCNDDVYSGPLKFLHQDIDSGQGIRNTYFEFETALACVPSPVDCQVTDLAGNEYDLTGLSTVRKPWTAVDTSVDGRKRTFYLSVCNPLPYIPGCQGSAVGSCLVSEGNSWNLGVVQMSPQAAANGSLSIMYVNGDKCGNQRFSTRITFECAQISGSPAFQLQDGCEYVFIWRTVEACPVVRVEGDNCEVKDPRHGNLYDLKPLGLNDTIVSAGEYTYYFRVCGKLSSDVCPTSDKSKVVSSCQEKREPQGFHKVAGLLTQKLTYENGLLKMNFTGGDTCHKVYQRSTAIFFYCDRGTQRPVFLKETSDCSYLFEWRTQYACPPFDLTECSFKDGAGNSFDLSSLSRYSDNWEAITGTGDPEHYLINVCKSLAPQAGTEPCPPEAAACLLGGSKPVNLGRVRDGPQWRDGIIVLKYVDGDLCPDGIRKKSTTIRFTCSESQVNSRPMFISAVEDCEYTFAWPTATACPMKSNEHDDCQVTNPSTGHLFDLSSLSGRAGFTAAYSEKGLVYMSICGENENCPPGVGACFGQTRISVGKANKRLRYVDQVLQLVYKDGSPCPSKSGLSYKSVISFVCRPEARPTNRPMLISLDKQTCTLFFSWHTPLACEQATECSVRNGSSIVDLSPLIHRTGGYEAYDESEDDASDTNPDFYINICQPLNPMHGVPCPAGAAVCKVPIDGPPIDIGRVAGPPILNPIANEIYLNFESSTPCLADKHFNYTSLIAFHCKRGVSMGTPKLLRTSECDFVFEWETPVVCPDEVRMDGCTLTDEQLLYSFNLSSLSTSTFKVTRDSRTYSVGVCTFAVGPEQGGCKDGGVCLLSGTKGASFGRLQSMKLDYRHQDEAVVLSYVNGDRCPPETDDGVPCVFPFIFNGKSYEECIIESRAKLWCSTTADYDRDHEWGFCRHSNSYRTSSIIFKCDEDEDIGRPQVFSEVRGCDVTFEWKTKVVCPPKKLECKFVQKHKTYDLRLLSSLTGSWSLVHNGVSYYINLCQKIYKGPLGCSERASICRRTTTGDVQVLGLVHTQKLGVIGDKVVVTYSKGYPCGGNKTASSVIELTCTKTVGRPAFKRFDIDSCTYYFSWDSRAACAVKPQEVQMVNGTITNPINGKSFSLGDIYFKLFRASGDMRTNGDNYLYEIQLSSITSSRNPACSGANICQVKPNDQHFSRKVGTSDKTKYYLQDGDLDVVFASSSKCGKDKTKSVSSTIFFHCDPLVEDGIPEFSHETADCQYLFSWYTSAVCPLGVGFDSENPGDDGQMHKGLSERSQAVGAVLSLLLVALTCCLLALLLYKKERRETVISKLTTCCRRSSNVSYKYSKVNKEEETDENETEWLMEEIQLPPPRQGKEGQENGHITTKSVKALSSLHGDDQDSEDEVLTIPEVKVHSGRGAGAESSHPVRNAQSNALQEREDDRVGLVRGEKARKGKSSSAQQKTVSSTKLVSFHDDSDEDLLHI

In assay [1], “CHO GUS-GILTΔ1-7 (from UniProt P08236 23-651)” gave a % IGF-II inhibition of uptake of 73%; a % M6P inhibition of uptake of 28%; a +IGF-II (units/mg), uptake with excess IGF-II of 84 units/mg; a +M6P (units/mg), uptake with excess M6P of 223 units/mg. Further, the Uptake (units/mg), 18 h in assay [1] was determined as 310 units/mg.

For “CHO GUSΔC18-GILTΔ1-7 (from UniProt P08236 23-633)”, in assay [2], the % IGF-II inhibition of uptake came to 75%; the +IGF-II Uptake (units/mg) amounted to 1010 units/mg; the Uptake (units/mg), 21 h amounted to 4080 units/mg. Also, in assay [3], the % IGF-II + M6P inhibition of uptake amounted to 100%; the % IGF-II inhibition of uptake was 70%; the % M6P inhibition of uptake amounted to 60%; the +IGF-II (units/mg), uptake with excess IGF-II is 473 units/mg. In addition, in assay [3], the +IGF-II + M6P (units/mg), uptake with both inhibitors came to 0 units/mg; the +M6P (units/mg), uptake with 8 mM M6P stood at 639 units/mg; the Uptake (units/mg), 22.5 h was determined as 1580 units/mg. In addition, in assay [1], the % IGF-II inhibition of uptake is 63%; the % M6P inhibition of uptake came to 41%; the +IGF-II (units/mg), uptake with excess IGF-II was determined as 258 units/mg; the +M6P (units/mg), uptake with excess M6P was determined as 412 units/mg. Besides, the Uptake (units/mg), 18 h in assay [1] worked out at 704 units/mg.

“GILT-GUS with Δ1-7 and Y27L mutations in the IGF-II portion, Leishmania-expressed (from UniProt P08236 23-651)” gave a cell-associated GUS activity in GM4668 fibroblasts, relative to unmodified GUS in assay [1] of 5 fold.

As for “GUS-IGF-II fusion protein (GUS-GILT), Leishmania-expressed”, in assay [1], the cell-associated GILT-GUS in GM4668 fibroblasts, no competitor (units/mg lysate) was over 24; the cell-associated GILT-GUS in GM4668 fibroblasts, with about 100-fold molar excess of IGF-II is 5.4 U; the cell-associated GUS activity in GM4668 fibroblasts, relative to unmodified GUS came to 10 fold.

In assay [2], “HEK GUS-GILT (from UniProt P08236 23-651)” came in with an Uptake (units/mg), 21 h of 1430 units/mg.

In assay [2], “HEK GUS-GILTF19S (from UniProt P08236 23-651)” registered a % IGF-II inhibition of uptake of 90.7%; a +IGF-II Uptake (units/mg) of 439 units/mg; an Uptake (units/mg), 21 h of 4730 units/mg. For the same molecule, in assay [3], the % IGF-II + M6P inhibition of uptake came to 99.1%; the % IGF-II inhibition of uptake came out at 86%; the % M6P inhibition of uptake was 60%; the +IGF-II (units/mg), uptake with excess IGF-II was determined as 217 units/mg. Also, in assay [3], the +IGF-II + M6P (units/mg), uptake with both inhibitors turned out to be 15 units/mg; the +M6P (units/mg), uptake with 8 mM M6P came to 952 units/mg; the Uptake (units/mg), 22.5 h came to 1590 units/mg.

For the molecule “HEK GUS-GILTF19SE12K (from UniProt P08236 23-651)”, in assay [2], the % IGF-II inhibition of uptake turned out to be 90.8%; the +IGF-II Uptake (units/mg) is 388 units/mg; the Uptake (units/mg), 21 h was 4230 units/mg. Moreover, in assay [3], the % IGF-II + M6P inhibition of uptake was found to be 100%; the % IGF-II inhibition of uptake was 98.2%; the % M6P inhibition of uptake amounted to 31%; the +IGF-II (units/mg), uptake with excess IGF-II came out at 22 units/mg. Besides, in assay [3], the +IGF-II + M6P (units/mg), uptake with both inhibitors is 0 units/mg; the +M6P (units/mg), uptake with 8 mM M6P was found to be 846 units/mg; the Uptake (units/mg), 22.5 h was found to be 1230 units/mg.

“HEK GUS-GILTY27L (from UniProt P08236 23-651)”: in assay [2], the Uptake (units/mg), 21 h turned out to be 1510 units/mg.

Take “HEK GUSΔC18-GILTΔ1-7 (from UniProt P08236 23-633)”: in assay [2], the % IGF-II inhibition of uptake amounted to 77%; the +IGF-II Uptake (units/mg) turned out to be 1210 units/mg; the Uptake (units/mg), 21 h turned out to be 5190 units/mg.

B1: CHO GUS (enzyme, UniProt P08236 23-651, looked up)
chain: LQGGMLYPQESPSRECKELDGLWSFRADFSDNRRRGFEEQWYRRPLWESGPTVDMPVPSSFNDISQDWRLRHFVGWVWYEREVILPERWTQDLRTRVVLRIGSAHSYAIVWVNGVDTLEHEGGYLPFEADISNLVQVGPLPSRLRITIAINNTLTPTTLPPGTIQYLTDTSKYPKGYFVQNTYFDFFNYAGLQRSVLLYTTPTTYIDDITVTTSVEQDSGLVNYQISVKGSNLFKLEVRLLDAENKVVANGTGTQGQLKVPGVSLWWPYLMHERPAYLYSLEVQLTAQTSLGPVSDFYTLPVGIRTVAVTKSQFLINGKPFYFHGVNKHEDADIRGKGFDWPLLVKDFNLLRWLGANAFRTSHYPYAEEVMQMCDRYGIVVIDECPGVGLALPQFFNNVSLHHHMQVMEEVVRRDKNHPAVVMWSVANEPASHLESAGYYLKMVIAHTKSLDPSRPVTFVSNSNYAADKGAPYVDVICLNSYYSWYHDYGHLELIQLQLATQFENWYKKYQKPIIQSEYGAETIAGFHQDPPLMFTEEYQKSLLEQYHLGLDQKRRKYVVGELIWNFADFMTEQSPTRVLGNKKGIFTRQRQPKSAAFLLRERYWKIANETRYPHSVAKSQCLENSLFT
In assay [4], B1 yielded a % IGF-II inhibition of uptake of 5%; a % M6P inhibition of uptake of 99.7%; a % inhibition of uptake by excess IGF-II of 4.5%; a +IGF-II (units/mg), uptake with excess IGF-II of 336 units/mg. For the same molecule, in assay [4], the +M6P (units/mg), uptake with excess M6P amounted to 1 units/mg and the Uptake (units/mg), 18 h is 352 units/mg.
